± gives the uncertainty stated by the source.
Experiment: protein stability index of a GFP-peptide fusion (yeast GPS) (PSI 1-4); higher = more stable; sorted into four equal gates, so the index is relative within each strain
Details: ubr1∆
Summary of the method: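 Plasmids in a pooled yeast library fused tiled 17-residue yeast protein peptides downstream of GFP and also expressed Cherry. Mid-log cultures grown without leucine were sorted into four equal gates by GFP/Cherry fluorescence ratio. Each gate's plasmids were PCR-amplified and Illumina-sequenced, and reads were matched to strains by barcodes. The protein stability index is derived by multiplying each gate's read frequency by its gate number and summing the results.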

Sequence | protein stability index
LLYELTAFKATVFFLIR [YJL039C/NUP192] | 2.43 ± 0.063
LMCLSSKYCEKSLPLLI [YCS4] | 2.39 ± 0.052
LMQNMMNMFGGGMGGGM [SRP54] | 2.27 ± 0.081
LMSCISVGTDPMPIITF [RPB2] | 2.18 ± 0.054
LMTSHTKGDTSKATGAP [RTT102] | 3.17 ± 0.06
LNAANYNIDANVIDTQR [ECM29] | 2.85 ± 0.12
LNCGNGMGIGFIDHHAA [POP1] | 3.42 ± 0.046
LNEEAVIFLSSLLTLVG [YJL039C/NUP192] | 2.9 ± 0.088
LNELYQTQQDLPKVRYN [NSL1] | 3.03 ± 0.038
LNESDCLEACSFILSSL [YDL116W/NUP84] | 2.65 ± 0.041
LNGREVKAILMQRHVKV [RPS4A] | 1.24 ± 0.051
LNIRIQTYGETTAVDAL [RPC19] | 1.15 ± 0.077
LNKGKKVTSMTPAPKIS [RPL36A] | 3.15 ± 0.12
LNLKFKEKWPSLELQSF [YML103C/NUP188] | 2.05 ± 0.19
LNLPLQFSLPNGDNSTT [SNF12] | 2.08 ± 0.038
LNNTHVISSGPLAAGNF [RPC53] | 2.49 ± 0.049
LNRQNDITDGKDYHTLA [RPS18A] | 3.11 ± 0.06
LNSTLESLYDLIEFQPS [MED6] | 2.76 ± 0.048
LNTLFNPVTLNEDSKAF [NUT1] | 1.92 ± 0.043
LNVAEIITSGRDTREVL [ARP9] | 3.43 ± 0.081
LNVKCTRNPDAPKGSTD [RPC40] | 3.06 ± 0.12
LNVPVFQIVIEPLAIAL [ARP7] | 1.25 ± 0.045
LNVSNTKENGDFTLPED [PRP8] | 3.21 ± 0.069
LPGELAKHAVSEGTRAV [HTB1] | 3.31 ± 0.088
LPLLYNFNPDNGFAPIS [FAS1] | 2.72 ± 0.068
LPLQPIEIDYTVRVDKA [SNF12] | 2.27 ± 0.045

Sequence | protein stability index
LPNETINDRNDRAIRKT [DIS3] | 2.29 ± 0.11
LPPEKIYSPLHSFIKML [SIR2] | 1.71 ± 0.032
LPQFRSSIQESLLSLVG [ECM29] | 1.65 ± 0.054
LPRELPKLLDALNKISK [SNU114] | 2.88 ± 0.062
LPTDGGLTSRLQRQQRK [POP4] | 3.38 ± 0.12
LPYAIAGSGSTFIYGYC [PRE3] | 2.29 ± 0.085
LPYPTYWSDKKADTDTL [SNF5] | 2.88 ± 0.059
LQCISQINQGVPSAKPL [SNF11] | 2.41 ± 0.074
LQDDEDHKFPIRENKVT [BRN1] | 2.38 ± 0.095
LQESINHVMYTEVSRKS [ECM29] | 2.51 ± 0.035
LQGEVENIAQMKPKAEK [SMC4] | 3.11 ± 0.075
LQIAQLTLKHRQNKVQH [RPN10] | 1.88 ± 0.065
LQIHSRKMTTDDDINWQ [RPT5] | 3.06 ± 0.063
LQIKRDVLDDLYRKLQR [CSE2] | 3.35 ± 0.055
LQILAMLLLNIFISSDH [YMR129W/POM152] | 1.13 ± 0.05
LQKRVIEHNLRVISEYY [RPN5] | 1.37 ± 0.095
LQPLEEGLIIDTDKLPI [SIN4] | 2.96 ± 0.061
LQRDLIQTKEQVSINSN [YIL149C/MLP2] | 3.27 ± 0.059
LQRTILNRIINHMLIDS [RGR1] | 1.72 ± 0.066
LQYLDKHIKNLEDDSLL [RPN12] | 3.3 ± 0.049
LRAIEKNDDNSCRNPEH [YIL149C/MLP2] | 3.15 ± 0.14
LRDYTTVPRIVQLLSKS [RPN2] | 1.73 ± 0.045
LRELSCCINAAFLALVD [RRP46] | 2.65 ± 0.065
LREYLNLPEHIVPGTYI [RPS10A] | 2.75 ± 0.059
LRFPEHTSSGSVSFKVF [BRR2] | 1.57 ± 0.06
LRKIDMLQKKLVEVEDE [SRB7] | 3.36 ± 0.1

Sequence | protein stability index
LRLKPGRKYTTLGKLST [RPL16B] | 2.97 ± 0.037
LRLVDDDENNPSHYPHP [RRP6] | 2.89 ± 0.038
LRSTEYSKSFEQFKMVS [POP1] | 2.52 ± 0.11
LSALFTISSKPDILATD [YCS4] | 2.98 ± 0.11
LSEAWRCWKANIPWDVP [PRP8] | 3.42 ± 0.15
LSEDVNLETLVTTKDDL [RPT2] | 2.89 ± 0.096
LSEPLIKIGIRVMKSLS [YCG1] | 1.73 ± 0.06
LSEWEEYLKGSESQLNS [YCS4] | 3.49 ± 0.1
LSHIVYFLVLSPYGNLQ [RPN5] | 1.12 ± 0.034
LSHYAKIRPWRTFRLNE [RPO31] | 2.5 ± 0.051
LSIWIKNYPEYFLKVTF [IRR1] | 1.8 ± 0.047
LSKIKFPESIWKDFTVE [YCG1] | 2 ± 0.03
LSKRQKRKSAQEPELSL [SMC4] | 3.4 ± 0.1
LSLGEAFKKIDAITVKD [COR1] | 3.71 ± 0.19
LSLVYEIGGSDLKESMV [ECM29] | 3.28 ± 0.11
LSRPYKALKTNINFASG [CDC53] | 2.66 ± 0.048
LSTGRKFERARGRRRSK [RPL18A] | 3.05 ± 0.1
LTDPMTVMFFYHNKHMM [DIB1] | 1.76 ± 0.041
LTHSTPKNFGIGQAVQP [RPL8A] | 3.18 ± 0.036
LTKFRQKLMQLVVLTDV [RGR1] | 1.13 ± 0.05
LTLKHRQNKVQHQRIVA [RPN10] | 1.84 ± 0.12
LTNEDPPGLMYLKAFDK [SSN2] | 3.22 ± 0.13
LTPIQKKIMDETPSRLL [ITC1] | 3.39 ± 0.039
LTQEELERIVQIMQNPT [RPS18A] | 2.75 ± 0.12
LTQGINGKEVPLAKIYL [MED1] | 2.21 ± 0.23
LTSNISSLVRSCGEEEF [REC8] | 3.25 ± 0.13

Sequence | protein stability index
LTSQAPQTTQMFQSQSQ [YDL088C/ASM4] | 3.06 ± 0.057
LTWLSSFSVCKIRCFRY [IRR1] | 1.61 ± 0.04
LTYDKDLTNNPQDDDSQ [MTR3] | 3.1 ± 0.075
LTYKSELSKSRALQENG [YMR153W/NUP53] | 1.87 ± 0.034
LVAAFIASLERELILAK [YCG1] | 1.48 ± 0.053
LVALSNEPAARLGSEAD [FAS2] | 3.32 ± 0.092
LVDSLATFTSIELTSYE [RPN7] | 1.72 ± 0.027
LVEKVYARFKNDFFPGE [ITC1] | 3.25 ± 0.077
LVHDGLARGLRESTKAL [RPS12] | 2.83 ± 0.17
LVHDVVYDFYGRHVATC [YGL100W/SEH1] | 1.38 ± 0.057
LVNRKPIPFEFQAVIQK [SNF2] | 2.83 ± 0.038
LVPKRCLFESLSNEAAL [RPO31] | 2.78 ± 0.22
LVPQLGHVGSVQISNIP [PRP8] | 2.72 ± 0.089
LVPTASFFIASQLQEQF [FAS1] | 1.86 ± 0.04
LVQKFGGADQVTRTQQW [SWI1] | 2.78 ± 0.076
LVQLPKSAMDTFKSVSK [POP3] | 2.54 ± 0.036
LVRDSKPSKPFNVDDVL [MED8] | 2.5 ± 0.047
LVRELYQWRDLIARRDD [RRP6] | 2.25 ± 0.043
LVSEARTLWPEFIPPDP [SSN8] | 3.03 ± 0.033
LVSTLTTGISSTGAADG [SMC2] | 2.69 ± 0.059
LVVLTDVVERLHKNFES [RGR1] | 2.96 ± 0.053
LYDLRASYAKIEIKISD [SNU114] | 2.13 ± 0.17
LYDNFVSKFYDKINQLS [RPN9] | 2.43 ± 0.077
LYGTAIGARSQGAKTYL [PRE5] | 3.13 ± 0.079
LYLKVIPMDFIRNVLVT [SSN2] | 1.29 ± 0.16
LYNDNNKNNNNRHNLLN [SWI1] | 2.4 ± 0.047
